The DeepSol protein solubility set

experiment: soluble on expression in E. coli; label from the status in PepcDB or PDB records

Row | Sequence | soluble on expression in E. coli
1 | ELSENFKKLMKYPYRPCTCTRCIEEQRVSAWFDERFNRSMQPLLTAKNAHLEEDTYKWWLRLQREKQPNNLNDTIRELFQVVPGNVDPLLEKRLVSCRRCAVVGNSGNLKESYYGPQIDSHDFVLRMNKAPTEGFEADVGSKTTHHFVYPESFRELAQEVSMILVPFKTTDLEWVISATTTGRISHTYVPVPAKIKVKKEKILIYHPAFIKYVFDRWLQGHGRYPSTGILSVIFSLHICDEVDLYGFGADSKGNWHHYWENNPSAGAFRKTGVHDGDFESNVTTILASINKIRIFKGR | soluble
2 | EMKVLVPDTSVIVDGRLTQYLERLKEKVKVVVPEAVVAEIEHQANAGKAIGHTGLEELKKLREIANEGKILLEFYGERPDLWQIRRAKSGEIDNMVREVARELNGVLVTGDQIQRDIAIAKGIDVIYLEAKREPRMRLEDFFDEE | not soluble
3 | ESEPQPEPCPGRAGAAARARWCPQPRPLVLLSLGALEFVSLSQQAFQICPVFVVCGLYQDGNSNKSFLLRSWCLHPEGTVCASSPERKDLPEALGNDPGTPGQRGLKLFGKAAGLLGKMAMAPSPSLVQVYTSPAAVAVWEWQDGLGTWHPYSATVCSFIEQQFVQQKGQRFGLGSLAHSIPLGQADPSLAPYIIDLPSWTQFRQDTGTMRAVRRHLFPQHSAPGRGVVWEWLSDDGSWTAYEASVCDYLEQQVARGNQLVDLAPLGYNYTVNYTTHTQTNKTSSFCRSVRRQAGPPYPVTTIIAPPGHTGVACSCHQCLSGSRTGPVSGRYRHSMTNLPAYPVPQHPPHRTASVFGTHQAFAPYNKPSLSGARSAPRLNTTNAWGAAPPSLGSQPLYRSSLSHLGPQHLPPGSSTSGAVSASLPSGPSSSPGSVPATVPMQMPKPSRVQQALAGMTSVLMSAIGLPVCLSRAPQPTSPPASRLASKSHGSVKRLRKMSVKEATPKPEPEPEQVIKNYTEELKVPPDEVCVLGPWLPLFLFGNNSTWKGHPPHLA | soluble
4 | ETVLADRFERLVELVTMMGDQGELPIAMALANVVPCSQWDELARVLVTLFDSRHLLYQLLWNMFSKEVELADSMQTLFRGNSLASKIMTFCFKVYGATYLQKLLDPLLRIVITSSDWQHVSFEVDPTRLEPSESLEENQRNLLQMTEKFFHAIISSSSEFPPQLRSVCHCLYQVVSQRFPQNSIGAVGSAMFLRFINPAIVSPYEAGILDKKPPPIIERGLKLMSKILQSIANHVLFTKEEHMRPFNDFVKSNFDAARRFFLDIASDCPTSDAVNHSLSFISDGNVLALHRLLWNNQEKIGQYLSSNRDHKAVGRRPFDKMATLLAYLGPPEH | soluble
5 | EVDPFVELHVRAMGLAEVYGKMNGYMPMNYEYNVGRVETGIAKALGIKPSRDYEGIVAESQKLAAKAPPRPPVLCPGCPHSASFYAIRRVVDELGDAALPS | not soluble
6 | EVENNFPCSLYKDEIMKEIERESKRIKLNDNDDEGNKKIIAPRIFISDDKDSLKCPCDPEMVSNSTCRFFVCKCVERRAEVTSNNEVVVKEEYKDEYADIPEHKPTYDKM | soluble
7 | EVKLVESGGGLVKPGGSLKLSCAASGFTFNNYVMVWLRQTPEKRLEWVASISRGGSTYYPDSVKGRFTISRDNARNILYLQMSSLRSEDTAMYYCVRGTTIVAGDVWGAGTTVTVSSAKTTPPSVYPLAPGSAAQTNSMVTLGCLVKGYFPEPVTVTWNSGSLSSGVHTFPAVLQSDLYTLSSSVTVPSSTWPSETVTCNVAHPASSTKVDKKIVPRDC | soluble
8 | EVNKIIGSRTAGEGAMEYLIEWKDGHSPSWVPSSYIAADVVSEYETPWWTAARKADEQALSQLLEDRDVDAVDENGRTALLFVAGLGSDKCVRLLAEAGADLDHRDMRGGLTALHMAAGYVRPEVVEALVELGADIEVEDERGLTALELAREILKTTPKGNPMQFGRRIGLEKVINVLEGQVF | soluble
9 | EVQLVESGGDLVKPGGSLKLSCAASGFTFSSYGMSWIRQTPDKRLEWVATISSGGSYTYYPDSVKGRFTISRDNAKNTLYLQMSSLKSEDTAMFYCARQTTMTYFAYWGQGTLVTVSAAKTTPPSVYPLAPGSAAQTNSMVTLGCLVKGYFPEPVTVTWNSGSLSSGVHTFPAVLQSDLYTLSSSVTVPSSPRPSETVTCNVAHPASSTKVDKKIEPA | soluble
10 | EVVRLGDVLELCQYGLSVPLKDKGKYPVIRMDEIVNGYVVTDIAKYADLDEETFKNFKLEKGDVLFNRTNSLELVGRTGIFLLDGYYVFASYLIRLRPKHEILHPHFLTFYLIFSQSRLKQLATVAVHQANINATNLKKFKIPLPPLPEQQKIAEILSTV | soluble
11 | EVVVIGYGTAKRKDITGSVATVNAEALTVVPVASATEALTGKMAGVQITTTEGSPDAEMKIRVRGGGSITGDNTPLFIVDGFPVESISDIPASDIEDMTVLKDASSTAIYGSRGANGVILVTTKSGK | not soluble
12 | EVYALEESRDVYLSDLDWLNATHGDDTKSKIVQKNHPFTPGNNNQSTKISLKMEDGSISEFEKGLGTIAGSPSTITYDISGAGVTKFFSYLGIDRSANPINEQYAKVDKIEVVVDGKVIYSTINQFPNGLTYETPAIKVDLNIPENAKRLQLKSYAGEKTWGDEVVYADAKFTAKGDFVN | soluble
13 | EWVAPTLSQKAENIKAAAINGKISTGNTGLWLKEKNSIINVREMLPDHTLLGIKIWARNDKNELAEAVEADSAVLNSDGSWQLKNIRRSTLGEDKVEVSIAAEENWPISVKRNLMDVLLVKPDQMSVGELTTYIRHLQNNSQNTRIYAIAWWRK | not soluble
14 | EYSYQYNLRVEPGVSHQRANIGIDYQGMDWIIGPNYTAEQARIILRLDDQTRYVLQPEKRHYPVRVMNMTEPAILSLWHGDYYLTLGDKVGTNAYAIKVQ | not soluble
15 | FAVSSELSACGRARTYRVEGQLFYGSVEDFMAAFDFREPLERVTIDVSRAHIWDISSVQALDMAVLKFRREGAEVRIVGMNEASETLVDRLALHDRPGALDRLTAH | not soluble
16 | FCKELPRPELPYSEMSAIGSLIQALPASCALHLANSSAVRYAQLYSLPDTVEVCCNRGTSGIEGSLSTAIGYAAASKKLNFVVIGDLSFFYDMNALWNNHFGSNLRILLLNNGGGEIFHTLPGLEMSGTSHRFVTAVHKTSAKGWAEERGFLYQEVQDEKQLDEAMKTFTQPELLTQPVIMEVFTNKNKDARILKDYYHQLKN | not soluble

Row | Sequence | soluble on expression in E. coli
17 | FDIALTGREGKKIGAAFIVGDSEEVLKRSHQIILNPYEGHEEAHRNILDRRNWESIKEFALLDGVFVIDETGIVRAAGRYLDVDGKNIDIEKGLGGRHVSAAAISRDTVAISVTVSESGGVLRVYKDAKETICMESLQPASRYV | not soluble
18 | FFSNAEVAERLAYPQLIEALRIGLAKPCSAPLRNCHALPAQASLLQMPVWQAGAGIGVKLVTVFPGNGARGLPAVAAVFALFDGEDGRPLALLEASELTARRTACSSALAADYLARDDARRLLVVGCGTLAAHMVRAHACVRDYRHIDIWGRDPAKAAALAARLREEGYPARAADGLRAAVEAADCVSCVTTSREALVRGAWLKPGVHLDLVGAFLPSMRETDVLAVARARVVVDTRAGALEEAGDLLQAIAEGAIGREAISTELRDLLSGAGRRGDPGEITLFKSVGYALEDLVAARRVV | not soluble
19 | FHPHTKGSQILMDLSHKAVKRQASFCNAITFSNRPVLIYEQVRLKITKKQCCWSGALRLGFTSKD | not soluble
20 | FLNTISTKDFKQKMADKTTGFVYVGRPTCEDCQAFQPILKKELEKRQPDQKMAYYNTDKASEKSRDDMIALLKKMDIDSVPTMVYLKDGKVASTYAATDEPAKLTNWMNKVSG | not soluble
21 | FNHPASAPYIQELATICQQLAQRLQRPVRLLEVGTRTGRAAESLLAQLNAGQIEYVGLEQSQEMLLSARQRLAPWPGARLSLWNADTLAAHAHSADIIWLNNALHRLLPEDPGLLATLQQLAVPGALLYVMEFRQLTPSALLSTLLLTNGQPEALLHNSADWAALFSAAGFNCQH | not soluble
22 | FNKELDPVQKLFVDKIREYRTKRQTSGGPVDAGPEYQQDLDRELFKLKQMYGKADMNTFPNFTFEDPKFEVVEKPQS | soluble
23 | FRKIAQAYNLDLLVHHANAQLKQLVRRYRLKRGGSMLGLLVMDTEMGDELRSVHSLSGGETFLVSLALALGLASMASSTLRIESLFIDEGFGSLDPESLQLAMDALDGLQAQGRKVGVISHVQEMHERIPVQIRVRRQGNGLSTI | not soluble
24 | FTSNKDERRWMVQCGSFRGAEQAETVRAQLAFEGFDSKITTNNGWNRVVIGPVKGKENADSTLNRLKMAGHTNCIRLAAGG | soluble
25 | FYHDYTVTQDELLKDSSDALKKEFLKILDKAIKRLILMANGDTIVIPLSGGYDSRAIATMLKKNGYENVILYTYGKPDSTEVRVAREVAKNLEFEWIFVEQNEDIVDPDYPERDFFLEFYKYAFNHVSTIHLQDFFVFKHLHDNSVIPKNSIIVPGHSGDFLGGSHLRKLPIPKSKRDVFNTILIKHYIVNEHIKLSPYVVKKINEYLNSFSEHTLPYSLDDNWNMKERQAKFIVNSNRTYEFFGYRHAIPLWDLELVEFFRRVPLEYKTKEVIYSDALRESVFKDFGVVLSQKDVANTMALEFYHRIFHSMEIFRHIRYFAEKN | not soluble
26 | GACDNDTEPGGTAVEKMAGDWWVTVNAFIDGKEVEDPFGAGHLQMSTYNTASNSETEMWLDDLGNFWEYKLKVNVNYAARTFSTTGFVDNVTYESKVKITDGKVLEKAATTPSGMPADSIVYMVQFDDDEDGLTYKVSGFRRTGFPADDF | soluble
27 | GAKPRNLNVSFQGCGMDSLSVRAMDTDTLTQVKEKILEAFCKNVPYSQWPRAEDVDLEWFASSTQSYILRDLDDTSVVEDGRKKLNTLAHYKIPEGASLAMSLIDKKDNTLGRVKDLDTEKYFHLVL | soluble
28 | GAMDAAVAPEERHLSKMQQNGYENPTYKFFEQMQN | soluble
29 | GAMEVIKNPKVFIDPLSVFKEIPFREDILRDAAIAIRYFVKNEVKFSNLFLGLTGTGKTFVSKYIFNEIEEVKKEDEEYKDVKQAYVNCREVGGTPQAVLSSLAGKLTGFSVPKHGINLGEYIDKIKNGTRNIRAIIYLDEVDTLVKRRGGDIVLYQLLRSDANISVIMISNDINVRDYMEPRVLSSLGPSVIFKPYDAEQLKFILSKYAEYGLIKGTYDDEILSYIAAISAKEHGDARKAVNLLFRAAQLASGGGIIRKEHVDKAIVDYEQERLIEAVKALPFHYKLALRSLIESEDVMSAHKMYTDLCNKFKQKPLSYRRFSDIISELDMFGIVKIRIINRGRAGGVKKYALVEDKEKVLRALNETFEDSISIGDFDDVGEN | soluble
30 | GAMGKVTHSIHIEKSDTAADTYGFSLSSVEEDGIRRLYVNSVKETGLASKKGLKAGDEILEINNRAADALNSSMLKDFLSQPSLGLLVRTYPEL | soluble
31 | GANDRYTETKRIVDSHCLHTICSSGRCPNMGECWGKGTATFMIGGDICTRSCKFCNTQTGRPHPLDANEPTHVAESIALMKLDHAVVTSVDRDDLPDLGAGHWAHTIREIKRLNPQTTIEVLIPDFQGRMELVDLVIEANPDIISHNMETVRRISPLVRSAANYDTSLQVIGHIARSGTKSKSGIMVGLGETPQEVETIMDDLLAVGCQILTIGQYLQPTHRHYPVAEYVTPQQFATYKTIGLEKGFSIVESAPLVRSSYHAEKHIR | not soluble
32 | GANETTKQESPVVDTDINAVTNYIVGMCQKFLQKGEKVTPSSKLEELRTREDRLWDCLDTVEFVLDVEEIFDVTVPDEVADNFQTLQEIADFVVSERAKAGKFMKDQ | soluble
